The text below walks through data of patent US20220177583A1.

Assay [1] addresses CLDN3/4 endogenously expressed on LS513 and MCF7 cells. The experiment in a line: FACS dose curve, labelled mAb, LS513 cells.
For assay [2], the target named is human CLDN6 fused to GFP, expressed on engineered HEK293T cells (human) (UniProt P56747). The experiment in a line: FACS dose curve, labelled mAb, HEK293T-CLDN6-mGFP cells.
For assay [3], the target named is CLDN3/4 endogenously expressed on LS513 and MCF7 cells. Description: FACS dose curve, labelled mAb, MCF7 cells.
For assay [4], the target named is human CLDN6 fused to GFP, expressed on engineered HEK293T cells (human) (UniProt P56747). The experiment in a line: KinExA 4000, cell-based equilibrium titration; Cell Model HEK293T CLDN6-mGFP A11, Cells Detached by Versene; Equilibrium Curves 500pM, 10nM. (A kinetic exclusion assay measures how much of one partner remains free in solution.)
For assay [5] the target is unchanged. The experiment in a line: FACS, 293T clone with human CLDN6, 1.5 ug Ab.
Assay [6] shares this target. Description: FACS, 293T clone with human CLDN6, 0.3 ug Ab.
Assay [7] has the same target. The experiment in a line: FACS on 293T CLDN6 mGFP Clone A11 cells, scFv followed by secondary antibody; number from the data table under the bars.

Positions count from the first letter of the chain named.

B1: AB10 (antibody, V domains shown)
VH: QIQLVQSGPALKKPGETVKISCKASGYTFTDYSMHWIKQAPGKGLKWMGWISTETGEPTYADGFKGRFDFSLETSADTAYLSINNLTNEDTATYFCTRGLWSSFAYWGQGTLVTVSA
VL: DVVMTQTPLSLPVSLGDQASISCRASQSLVHSNGNTYLHWFLQKPGQSPKLLIYKVSNRFSGVPDRFSGSGSRTDFTLKISRVEAEDLGVYFCSQITHVPYTFGGGTKLEIK
For orientation: EC50 means the concentration giving half of the maximal effect. A lower EC50 goes with a more potent agent. For the molecule B1, the values for the EC50 in assay [1], in assay [2] and in assay [3] were 1950 nM, 2760 nM and 5000 nM, respectively.

B2: AB3-7 conjugated to MC-VC-PAB-MMAE (conventional) (antibody, V domains shown)
VH: EVQLLESGGGLVQPGGSMRLSCAASGFTFSNYWMNWVRQAPGKGLEWVAQIRLKSDNYATHYADSVKGRFTISRDDSKNTVYLQMNSLRAEDTGVYYCNDGPPSGSWGQGTLLTVSS
VL: DIQMTQSPSSLSASVGDRVTITCRISENIYSYLAWYQQKPGKAPKLLVYNAKILVEGVPSRFSGSGSGTDFTLTISSLQPEDFGTYYCQHHYTVPWTFGQGTKLEIK
modifications: MC-VC-PAB-MMAE conjugated to the antibody, heterogeneous (conventional); sites not stated
Broadly, the Kd is the equilibrium constant for the complex coming apart. For B2, the Kd in assay [4] amounted to 6.68 nM.

B3: AB3-7 conjugated to MC-VC-PAB-DXD (antibody, V domains shown)
VH: B2 VH
VL: B2 VL
modifications: MC-VC-PAB-DXD conjugated to the antibody; sites not stated
Consider B3, for which the Kd in assay [4] stood at 3.42 nM.

B4: AB3-7 (antibody, V domains shown)
VH: B2 VH
VL: B2 VL
On to B4, for which the FACS signal was found to be 169000 in assay [5] and 106000 in assay [6]. Further, the Kd in assay [4] was found to be 1.13 nM.

B5: AB3-7 conjugated to CL2A-SN38 (D4 technology) (antibody, V domains shown)
VH: B2 VH
VL: B2 VL
modifications: CL2A-SN38 conjugated to the antibody (D4); sites not stated
In assay [4], B5 gave a Kd of 2.87 nM.

B6: AB3-7 conjugated to MC-VC-PAB-MMAE (D4 technology) (antibody, V domains shown)
VH: B2 VH
VL: B2 VL
modifications: MC-VC-PAB-MMAE conjugated to the antibody, substantially 4 drugs per antibody (D4); sites not stated
Consider B6, for which, in assay [4], the Kd was 5.34 nM.

B7: AB3-7 conjugated to MC-GGFG-DXD (antibody, V domains shown)
VH: B2 VH
VL: B2 VL
modifications: MC-GGFG-DXD conjugated to the antibody; sites not stated
In turn, B7 returned a Kd in assay [4] of 3.01 nM.

B8: AB3-7 conjugated to MC-GGFG-MMAE (D4 technology) (antibody, V domains shown)
VH: B2 VH
VL: B2 VL
modifications: MC-GGFG-MMAE conjugated to the antibody (D4); sites not stated
In assay [4], B8 gave a Kd of 1.01 nM. Against the preceding molecule, the Kd is about 3-fold lower.

B9: AB3-7 conjugated to CL2A-SN38 (conventional) (antibody, V domains shown)
VH: B2 VH
VL: B2 VL
modifications: CL2A-SN38 conjugated to the antibody, heterogeneous (conventional); sites not stated
B9 had a Kd in assay [4] of 1.91 nM.

B10: AB18 (antibody, V domains shown)
VH: QVQLKQSGPELEKPGASVKISCKASGYSFTGYNMNWVKQSNGKSLEWIGNIDPYYGGSTYNQKFTGKATLTVDKSSSTAYMQLKSLTSEDSAVYYCARERSGYVFSAMDYWGQGTSVTVSS
VL: NIMMTQSPSSLAVSAGEKVTMSCKSSQSVLFSSNQKNYLAWYQQKPGQSPRLLIYWASTRESGVPDRFTGSGSGTDFTLTISNVQAEDLAVYYCHQYLSSRTFGAGTKLELK
Consider B10, for which the EC50 in assay [1], in assay [2] and in assay [3] was 5000 nM in each case.

B11: AB19 (antibody, V domains shown)
VH: EVQLQQSGPELVKPGGSMKISCKASGYSFTGYTMNWVKRSHGKNLEWIGLINPYNGVTTYNQNFKGKATLAVDKSSSTAYMELLGLTSEDSAVYYCTRDPLYYGYRDSTMDYWGQGTSVTVSS
VL: B10 VL
For the molecule B11, the EC50 in assay [1], in assay [2] and in assay [3] was 5000 nM throughout.

B12: AB7 (antibody, V domains shown)
VH: EVQLQQSGPELVKPGASMKISCKASGYSFTGYTMNWVKQSHGKNLEWIGLINPYNGGTNYNQKFKGKATLTVDKSSSTAYMELLSLTSEDSAVYYCARGVYDYDGFTYWGQGTLVTVSA
VL: QIVLTQSPAIMSASLGDRVTMTCTASSSVSSSYLHWYQQKPGSSPKLWIYSTSNLASGVPARFSGSGSGTSYSLTISSMEAEDAATYYCHQYHRSPPTFGSGTKLEIK
On to B12, for which the figures for the EC50 in assay [1], in assay [2] and in assay [3] were 635 nM, 579 nM and 979 nM, respectively.

B13: AB17 (antibody, V domains shown)
VH: QVQLQQSGAELAKPGASVKMSCKASGYTFTGYWMHWVKQRPGQGLEWLGYINPSTGYTESNQKFKDKATLTADKSSTTAYMQLRSLTPEDSAVYYCAREGITTVLVDYWGQGTTLTVSS
VL: B12 VL with D17E, S101A, I107L
As to B13, the EC50 was found to be 5000 nM in assay [1], 2650 nM in assay [2] and 5000 nM in assay [3].

B14: AB12 (antibody, V domains shown)
VH: EVKLMESGGDLVKPGGSLKLSCAASGFTFSSYAMSWVRQTPEKRLEWVASIRSGGTTYYPDSVKGRFTISRDNARNILYLRMSSLRSEDTAIYYCAKVGGNPYPMDYWGQGTSVTVSS
VL: DIQMIQSPSSMFASLGDRVSLSCRASQDIGGNLDWYQQKPGGTIKLLIYSTSNLNSGVPSRFSGSGSGSDYSLTITSLESEDFADYYCLQRNAYPLTFGAGTKLELK
Regarding B14, the EC50 amounted to 2270 nM in assay [1], 5000 nM in assay [2] and 5000 nM in assay [3].

B15: AB14 (antibody, V domains shown)
VH: QVQLQQSGPELVRPGVSVKISCKGSGYTFTDYAMHWVKQSHAKSLEWIGVISTYSGNTNYNQKFQDKATMTVDKSSSTAYMALARLTSDDSAIYYCARRGDYSLYAMDYWGQGTSVTVSS
VL: DIVLTQSPASLAVSLGQRATISCKASQSVDYDGDNYVNWYQQKVGQPPKLLISAASNLESGIPARFSGSGSGTDFTLNIHPVEEEDAATYYCQQSNEDPFTFGSGTKLEIK
Turning to B15, the values for the EC50 in assay [1], in assay [2] and in assay [3] were 1160 nM, 5000 nM and 546 nM, respectively.

B16: AB9 (antibody, V domains shown)
VH: EVQLQQSGPELVKPGASVKMSCKASGYRFTDYNMHWVKQSHGKSLEWIGYINPNNGGTNYNQNFKGKATLTVNKSSSTAYMELRSLTSEDSAAYYCARDYLYFFDCWGQGTTLTVSS
VL: DIQMTQSPASQSASLGESVTITCLASQTIGTWLAWYQQKPGKSPQLLIYAAASLADGVPSRFSGSGSGTRFSFKISSLQAEDFVSYYCQQLYSIPRTFGGGTKLEIK
In the case of B16, the EC50 in assay [1] was found to be 1040 nM; in assay [2], 2670 nM; in assay [3], 5000 nM.

B17: AB3-7 scFv (scFv)
scFv: DIQMTQSPSSLSASVGDRVTITCRISENIYSYLAWYQQKPGKAPKLLVYNAKILVEGVPSRFSGSGSGTDFTLTISSLQPEDFGTYYCQHHYTVPWTFGQGTKLEIKGGGGSGGGGSGGGGSEVQLLESGGGLVQPGGSMRLSCAASGFTFSNYWMNWVRQAPGKGLEWVAQIRLKSDNYATHYADSVKGRFTISRDDSKNTVYLQMNSLRAEDTGVYYCNDGPPSGSWGQGTLLTVSS
On to B17, for which the FL4H Singlets in Viable cells in assay [7] is 132000.

B18: AB11 (antibody, V domains shown)
VH: DVQLVESGGGLVQPRGSRKLSCAASGFTFSSFGMHWVRQAPEKGLEWVAYISSDSRTIYYADTVKGRFTISRDNPTNTLFLQMTSLRSEDTAMYYCARDYGRTYEAYWGQGTLVTVSA
VL: DIVLTQSPASLAVSLGQRATISCRASKSVSTSGYSYIHWYQQKPGQPPKLLIYLASNLESGVPARFSGSGSGTDFTLNIHPVEEEDAATYYCQHSRELPLTFGAGTKLELK
Consider B18, for which the values for the EC50 in assay [1], in assay [2] and in assay [3] were 493 nM, 1700 nM and 427 nM, respectively.

B19: AB15 (antibody, V domains shown)
VH: B18 VH
VL: B10 VL
Regarding B19, the EC50 in assay [1], in assay [2] and in assay [3] was 5000 nM in each case.

B20: AB6 (antibody, V domains shown)
VH: DVQLQESGPGLVKSSQSLSLTCSVTGYSITSGYYWKWIRQFPGNKLEWMGYISYDGGINYNPSLKNRISITRDTSKNQFFLKLNSVTTEDTAKYYCARFGKGAMDYWGQGTSVTVSS
VL: AIVMFQSPSSLVVSAGEKVTMSCKSSQSLLNSRTRKNYLAWYQQKPGQSPKLLIYWASTRESGVPDRFTGSGSGTDFTLTISSVQAEDLAVYYCKQSYYLYTFGGGTKLEIK
On to B20, for which the EC50 came out at 133 nM in assay [1], 1430 nM in assay [2] and 1140 nM in assay [3].

B21: AB13 (antibody, V domains shown)
VH: QVQLQQSGAELVRPGTSVKVSCKASGYAFSNYLIEWVKQRPGQGLEWIGVINPGSGGTNYNEKFKGKATMTADKSSSTAYMHLSNLTSEDSVVYFCARSYFGRSYPYTMDYWGQGTSVTVSS
VL: EIVLTQSPTTMAASPGEKITITCSASSSISSNYLHWYQQKPGFSPKLLIYRTSNLASGVPARFSGSGSGTSYSLTIGTMEAEDVATYYCQQGSSIPLTFGAGTKLELK
As for B21, the results for the EC50 in assay [1], in assay [2] and in assay [3] were 1590 nM, 5000 nM and 5000 nM, respectively.
